The supplement of paper PMC5998384

Columns and labels:
HeLa Kyoto [1] = assay: thermal stability score vs G1/S (z-score of summed log2 fold changes over temperatures); higher = more thermally stable than in G1/S
HeLa Kyoto [2] = assay: solubility change mitosis vs G1/S (difference of NP-40 vs SDS log2 ratios) (log2 ratio difference); higher = more soluble in mitosis
HeLa Kyoto [3] = assay: solubility in G1/S (NP-40 vs SDS abundance) (log2 ratio); higher = more soluble; details: cell cycle stage: G1/S
HeLa Kyoto [4] = assay: melting temperature (median over replicates), in situ; higher = more thermally stable
[5] = cell cycle stage: early G1 (4.5 h after nocodazole release)
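Throughout, for melting temperature (median over replicates), in situ: HeLa Kyoto cells synchronized by double thymidine or nocodazole block, proteins quantified by TMT10plex mass spectrometry, three independent biological replicates.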
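Throughout, for solubility change mitosis vs G1/S (difference of NP-40 vs SDS log2 ratios): synchronized HeLa Kyoto cells (double thymidine block for G1/S, nocodazole release for mitosis), protein amounts in NP-40 versus SDS lysates quantified by mass spectrometry, three biological replicates.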
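Throughout, for solubility in G1/S (NP-40 vs SDS abundance): HeLa Kyoto cells arrested at G1/S by double thymidine block, proteins quantified by TMT10plex mass spectrometry in mild NP-40 versus SDS extracts, three biological replicates.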
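Throughout, for thermal stability score vs G1/S (z-score of summed log2 fold changes over temperatures): synchronized HeLa Kyoto cells, proteins quantified by TMT10plex mass spectrometry, three biological replicates, mitosis taken 0.5 h after nocodazole release, G1/S directly after double thymidine block.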

| Substance | thermal stability score (HeLa Kyoto [1]; [5]) | thermal stability score (HeLa Kyoto [1]; cell cycle stage: mitosis) | solubility change mitosis (log2) (HeLa Kyoto [2]) | solubility in G1/S (log2) (HeLa Kyoto [3]) | melting temperature (HeLa Kyoto [4]; cell cycle stage: G1/S) [°C] | melting temperature (HeLa Kyoto [4]; cell cycle stage: mitosis) [°C] |
| --- | --- | --- | --- | --- | --- | --- |
| MKLKDTKSRPKQSSCGKFQTKGIKVVGKWKEVKIDPNMFADGQMDDLVCFEELTDYQLVSPAKNPSSLFSKEAPKRKAQAVSEEEEEEEGKSSSPKKKIKLKKSKNVATEGTSTQKEFEVKDPELEAQGDDMVCDDPEAGEMTSENLVQTAPKKKKNKGKKGLEPSQSTAAKVPKKAKTWIPEVHDQKADVSAWKDLFVPRPVLRALSFLGFSAPTPIQALTLAPAIRDKLDILGAAETGSGKTLAFAIPMIHAVLQWQKRNAAPPPSNTEAPPGETRTEAGAETRSPGKAEAESDALPDDTVIESEALPSDIAAEARAKTGGTVSDQALLFGDDDAGEGPSSLIREKPVPKQNENEEENLDKEQTGNLKQELDDKSATCKAYPKRPLLGLVLTPTRELAVQVKQHIDAVARFTGIKTAILVGGMSTQKQQRMLNRRPEIVVATPGRLWELIKEKHYHLRNLRQLRCLVVDEADRMVEKGHFAELSQLLEMLNDSQYNPKRQTLVFSATLTLVHQAPARILHKKHTKKMDKTAKLDLLMQKIGMRGKPKVIDLTRNEATVETLTETKIHCETDEKDFYLYYFLMQYPGRSLVFANSISCIKRLSGLLKVLDIMPLTLHACMHQKQRLRNLEQFARLEDCVLLATDVAARGLDIPKVQHVIHYQVPRTSEIYVHRSGRTARATNEGLSLMLIGPEDVINFKKIYKTLKKDEDIPLFPVQTKYMDVVKERIRLARQIEKSEYRNFQACLHNSWIEQAAAALEIELEEDMYKGGKADQQEERRRQKQMKVLKKELRHLLSQPLFTESQKTKYPTQSGKPPLLVSAPSKSESALSCLSKQKKKKTKKPKEPQPEQPQPSTSAN [DDX24] | -0.338 | 1.04 | 1.07 | -1.47 | 49.9 | 50.5 |
| MSYGPLDMYRNPGPSGPQLRDFSSIIQTCSGNIQRISQATAQIKNLMSQLGTKQDSSKLQENLQQLQHSTNQLAKETNELLKELGSLPLPLSTSEQRQQRLQKERLMNDFSAALNNFQAVQRRVSEKEKESIARARAGSRLSAEERQREEQLVSFDSHEEWNQMQSQEDEVAITEQDLELIKERETAIRQLEADILDVNQIFKDLAMMIHDQGDLIDSIEANVESSEVHVERATEQLQRAAYYQKKSRKKMCILVLVLSVIILILGLIIWLVYKTK [STX12] | -1.25 | -1.93 | 0.0226 | -0.121 | 53.9 | 54.3 |
| MDPFTEKLLERTRARRENLQRKMAERPTAAPRSMTHAKRARQPLSEASNQQPLSGGEEKSCTKPSPSKKRCSDNTEVEVSNLENKQPVESTSAKSCSPSPVSPQVQPQAADTISDSVAVPASLLGMRRGLNSRLEATAASSVKTRMQKLAEQRRRWDNDDMTDDIPESSLFSPMPSEEKAASPPRPLLSNASATPVGRRGRLANLAATICSWEDDVNHSFAKQNSVQEQPGTACLSKFSSASGASARINSSSVKQEATFCSQRDGDASLNKALSSSADDASLVNASISSSVKATSPVKSTTSITDAKSCEGQNPELLPKTPISPLKTGVSKPIVKSTLSQTVPSKGELSREICLQSQSKDKSTTPGGTGIKPFLERFGERCQEHSKESPARSTPHRTPIITPNTKAIQERLFKQDTSSSTTHLAQQLKQERQKELACLRGRFDKGNIWSAEKGGNSKSKQLETKQETHCQSTPLKKHQGVSKTQSLPVTEKVTENQIPAKNSSTEPKGFTECEMTKSSPLKITLFLEEDKSLKVTSDPKVEQKIEVIREIEMSVDDDDINSSKVINDLFSDVLEEGELDMEKSQEEMDQALAESSEEQEDALNISSMSLLAPLAQTVGVVSPESLVSTPRLELKDTSRSDESPKPGKFQRTRVPRAESGDSLGSEDRDLLYSIDAYRSQRFKETERPSIKQVIVRKEDVTSKLDEKNNAFPCQVNIKQKMQELNNEINMQQTVIYQASQALNCCVDEEHGKGSLEEAEAERLLLIATGKRTLLIDELNKLKNEGPQRKNKASPQSEFMPSKGSVTLSEIRLPLKADFVCSTVQKPDAANYYYLIILKAGAENMVATPLASTSNSLNGDALTFTTTFTLQDVSNDFEINIEVYSLVQKKDPSGLDKKKKTSKSKAITPKRLLTSITTKSNIHSSVMASPGGLSAVRTSNFALVGSYTLSLSSVGNTKFVLDKVPFLSSLEGHIYLKIKCQVNSSVEERGFLTIFEDVSGFGAWHRRWCVLSGNCISYWTYPDDEKRKNPIGRINLANCTSRQIEPANREFCARRNTFELITVRPQREDDRETLVSQCRDTLCVTKNWLSADTKEERDLWMQKLNQVLVDIRLWQPDACYKPIGKP [ANLN] | 5.84 | 9.22 | 0.0107 | -0.029 | 47 | 49.6 |
| MTSSGPGPRFLLLLPLLLPPAASASDRPRGRDPVNPEKLLVITVATAETEGYLRFLRSAEFFNYTVRTLGLGEEWRGGDVARTVGGGQKVRWLKKEMEKYADREDMIIMFVDSYDVILAGSPTELLKKFVQSGSRLLFSAESFCWPEWGLAEQYPEVGTGKRFLNSGGFIGFATTIHQIVRQWKYKDDDDDQLFYTRLYLDPGLREKLSLNLDHKSRIFQNLNGALDEVVLKFDRNRVRIRNVAYDTLPIVVHGNGPTKLQLNYLGNYVPNGWTPEGGCGFCNQDRRTLPGGQPPPRVFLAVFVEQPTPFLPRFLQRLLLLDYPPDRVTLFLHNNEVFHEPHIADSWPQLQDHFSAVKLVGPEEALSPGEARDMAMDLCRQDPECEFYFSLDADAVLTNLQTLRILIEENRKVIAPMLSRHGKLWSNFWGALSPDEYYARSEDYVELVQRKRVGVWNVPYISQAYVIRGDTLRMELPQRDVFSGSDTDPDMAFCKSFRDKGIFLHLSNQHEFGRLLATSRYDTEHLHPDLWQIFDNPVDWKEQYIHENYSRALEGEGIVEQPCPDVYWFPLLSEQMCDELVAEMEHYGQWSGGRHEDSRLAGGYENVPTVDIHMKQVGYEDQWLQLLRTYVGPMTESLFPGYHTKARAVMNFVVRYRPDEQPSLRPHHDSSTFTLNVALNHKGLDYEGGGCRFLRYDCVISSPRKGWALLHPGRLTHYHEGLPTTWGTRYIMVSFVDP [PLOD3] | 2.65 | 3.82 | 0.039 | -0.074 | 54.2 | 55 |
| MTRHGKNCTAGAVYTYHEKKKDTAASGYGTQNIRLSRDAVKDFDCCCLSLQPCHDPVVTPDGYLYEREAILEYILHQKKEIARQMKAYEKQRGTRREEQKELQRAASQDHVRGFLEKESAIVSRPLNPFTAKALSGTSPDDVQPGPSVGPPSKDKDKVLPSFWIPSLTPEAKATKLEKPSRTVTCPMSGKPLRMSDLTPVHFTPLDSSVDRVGLITRSERYVCAVTRDSLSNATPCAVLRPSGAVVTLECVEKLIRKDMVDPVTGDKLTDRDIIVLQRGGTGFAGSGVKLQAEKSRPVMQA [NOSIP] | 4.16 | 6.51 | -0.163 | 0.262 | 45.8 | 47.8 |
| MVPLVAVVSGPRAQLFACLLRLGTQQVGPLQLHTGASHAARNHYEVLVLGGGSGGITMAARMKRKVGAENVAIVEPSERHFYQPIWTLVGAGAKQLSSSGRPTASVIPSGVEWIKARVTELNPDKNCIHTDDDEKISYRYLIIALGIQLDYEKIKGLPEGFAHPKIGSNYSVKTVEKTWKALQDFKEGNAIFTFPNTPVKCAGAPQKIMYLSEAYFRKTGKRSKANIIFNTSLGAIFGVKKYADALQEIIQERNLTVNYKKNLIEVRADKQEAVFENLDKPGETQVISYEMLHVTPPMSPPDVLKTSPVADAAGWVDVDKETLQHRRYPNVFGIGDCTNLPTSKTAAAVAAQSGILDRTISVIMKNQTPTKKYDGYTSCPLVTGYNRVILAEFDYKAEPLETFPFDQSKERLSMYLMKADLMPFLYWNMMLRGYWGGPAFLRKLFHLGMS [SQRDL] | 0.51 | -4.29 | -0.0579 | 0.148 | 54.3 | 54.3 |
| MGSPEDDLIGIPFPDHSSELLSCLNEQRQLGHLCDLTIRTQGLEYRTHRAVLAACSHYFKKLFTEGGGGAVMGAGGSGTATGGAGAGVCELDFVGPEALGALLEFAYTATLTTSSANMPAVLQAARLLEIPCVIAACMEILQGSGLEAPSPDEDDCERARQYLEAFATATASGVPNGEDSPPQVPLPPPPPPPPRPVARRSRKPRKAFLQTKGARANHLVPEVPTVPAHPLTYEEEEVAGRVGSSGGSGPGDSYSPPTGTASPPEGPQSYEPYEGEEEEEELVYPPAYGLAQGGGPPLSPEELGSDEDAIDPDLMAYLSSLHQDNLAPGLDSQDKLVRKRRSQMPQECPVCHKIIHGAGKLPRHMRTHTGEKPFACEVCGVRFTRNDKLKIHMRKHTGERPYSCPHCPARFLHSYDLKNHMHLHTGDRPYECHLCHKAFAKEDHLQRHLKGQNCLEVRTRRRRKDDAPPHYPPPSTAAASPAGLDLSNGHLDTFRLSLARFWEQSAPTGPPVSTPGPPDDDEEEGAPTTPQAEGAMESS [ZBTB7B] | 1.42 | 0.814 | 0.171 | -0.127 | 54.7 | 55 |
| ALDH3A2 | -0.835 | -0.622 | -0.0531 | -0.186 | 51 | 50.7 |
| RSRC2 | 2.6 | 0.263 | 0.135 | -0.575 | 51.8 | 52.2 |
| MADEAALALQPGGSPSAAGADREAASSPAGEPLRKRPRRDGPGLERSPGEPGGAAPEREVPAAARGCPGAAAAALWREAEAEAAAAGGEQEAQATAAAGEGDNGPGLQGPSREPPLADNLYDEDDDDEGEEEEEAAAAAIGYRDNLLFGDEIITNGFHSCESDEEDRASHASSSDWTPRPRIGPYTFVQQHLMIGTDPRTILKDLLPETIPPPELDDMTLWQIVINILSEPPKRKKRKDINTIEDAVKLLQECKKIIVLTGAGVSVSCGIPDFRSRDGIYARLAVDFPDLPDPQAMFDIEYFRKDPRPFFKFAKEIYPGQFQPSLCHKFIALSDKEGKLLRNYTQNIDTLEQVAGIQRIIQCHGSFATASCLICKYKVDCEAVRGDIFNQVVPRCPRCPADEPLAIMKPEIVFFGENLPEQFHRAMKYDKDEVDLLIVIGSSLKVRPVALIPSSIPHEVPQILINREPLPHLHFDVELLGDCDVIINELCHRLGGEYAKLCCNPVKLSEITEKPPRTQKELAYLSELPPTPLHVSEDSSSPERTSPPDSSVIVTLLDQAAKSNDDLDVSESKGCMEEKPQEVQTSRNVESIAEQMENPDLKNVGSSTGEKNERTSVAGTVRKCWPNRVAKEQISRRLDGNQYLFLPPNRYIFHGAEVYSDSEDDVLSSSSCGSNSDSGTCQSPSLEEPMEDESEIEEFYNGLEDEPDVPERAGGAGFGTDGDDQEAINEAISVKQEVTDMNYPSNKS [SIRT1] | 0.328 | 2.02 | -0.0419 | -0.0978 | 50.2 | 50.1 |
| MEEDTDYRIRFSSLCFFNDHVGFHGTIKSSPSDFIVIEIDEQGQLVNKTIDEPIFKISEIQLEPNNFPKKPKLDLQNLSLEDGRNQEVHTLIKYTDGDQNHQSGSEKEDTIVDGTSKCEEKADVLSSFLDEKTHELLNNFACDVREKWLSKTELIGLPPEFSIGRILDKNQRASLHSAIRQKFPFLVTVGKNSEIVVKPNLEYKELCHLVSEEEAFDFFKYLDAKKENSKFTFKPDTNKDHRKAVHHFVNKKFGNLVETKSFSKMNCSAGNPNVVVTVRFREKAHKRGKRPLSECQEGKVIYTAFTLRKENLEMFEAIGFLAIKLGVIPSDFSYAGLKDKKAITYQAMVVRKVTPERLKNIEKEIEKKRMNVFNIRSVDDSLRLGQLKGNHFDIVIRNLKKQINDSANLRERIMEAIENVKKKGFVNYYGPQRFGKGRKVHTDQIGLALLKNEMMKAIKLFLTPEDLDDPVNRAKKYFLQTEDAKGTLSLMPEFKVRERALLEALHRFGMTEEGCIQAWFSLPHSMRIFYVHAYTSKIWNEAVSYRLETYGARVVQGDLVCLDEDIDDENFPNSKIHLVTEEEGSANMYAIHQVVLPVLGYNIQYPKNKVGQWYHDILSRDGLQTCRFKVPTLKLNIPGCYRQILKHPCNLSYQLMEDHDIDVKTKGSHIDETALSLLISFDLDASCYATVCLKEIMKHDV [PUS7L] | 0.23 | 0.98 | -0.137 | -0.0836 | 51 | 51.9 |
